How the values were obtained:
[1] = biological target: T1, yeast Emg1-Nuclear Interacting Protein 1 (ENIP1), S. cerevisiae gene locus YDL148c (S. cerevisiae, UniProt Q99207 1-810, limits assumed); test: yeast two-hybrid, cell growth assay on selective (no histidine) medium
T1 construct: 810 amino acids; also called yeast ENIP1; yENIP
T1 sequence: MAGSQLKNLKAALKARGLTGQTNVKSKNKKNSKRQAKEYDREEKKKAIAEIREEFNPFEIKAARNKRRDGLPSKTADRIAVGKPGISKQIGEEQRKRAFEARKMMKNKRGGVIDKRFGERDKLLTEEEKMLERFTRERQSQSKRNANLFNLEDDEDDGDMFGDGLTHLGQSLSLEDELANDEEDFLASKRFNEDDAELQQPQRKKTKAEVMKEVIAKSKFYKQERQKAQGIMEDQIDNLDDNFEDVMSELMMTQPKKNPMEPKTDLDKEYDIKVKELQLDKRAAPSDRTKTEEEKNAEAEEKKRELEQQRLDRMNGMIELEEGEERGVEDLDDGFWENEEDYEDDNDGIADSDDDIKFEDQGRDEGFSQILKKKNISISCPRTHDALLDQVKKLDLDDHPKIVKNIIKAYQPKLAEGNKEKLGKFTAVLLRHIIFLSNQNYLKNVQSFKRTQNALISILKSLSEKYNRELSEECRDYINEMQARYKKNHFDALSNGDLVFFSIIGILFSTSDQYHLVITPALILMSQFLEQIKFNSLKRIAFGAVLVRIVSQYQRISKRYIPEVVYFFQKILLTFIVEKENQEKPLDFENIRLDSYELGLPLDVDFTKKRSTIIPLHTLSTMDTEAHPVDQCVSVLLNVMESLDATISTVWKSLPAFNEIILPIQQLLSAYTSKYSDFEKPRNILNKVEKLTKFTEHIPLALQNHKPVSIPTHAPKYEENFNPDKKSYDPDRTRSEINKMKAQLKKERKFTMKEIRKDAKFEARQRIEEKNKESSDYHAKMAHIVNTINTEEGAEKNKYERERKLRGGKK

[2] = biological target: T2, yeast ENIP1 protein fragment (composed of amino acids 170-469) (S. cerevisiae, UniProt Q99207 170-469); test: yeast two-hybrid
T2 construct: Truncation construct used in the yeast two-hybrid system
T2 sequence: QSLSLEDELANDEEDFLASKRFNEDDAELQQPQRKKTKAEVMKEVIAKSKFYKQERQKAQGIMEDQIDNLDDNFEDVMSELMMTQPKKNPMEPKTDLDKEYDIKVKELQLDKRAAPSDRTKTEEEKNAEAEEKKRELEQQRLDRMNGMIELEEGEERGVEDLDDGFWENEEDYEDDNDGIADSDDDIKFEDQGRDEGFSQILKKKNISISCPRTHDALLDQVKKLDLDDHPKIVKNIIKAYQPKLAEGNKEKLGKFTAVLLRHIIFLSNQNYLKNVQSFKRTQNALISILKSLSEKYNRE

B1: mouse Emg1 protein (other)
chain: MSAASGGFQPRERRFSVQEQDWETTPPKKLRLGAGSKCGGRRLIVVLEGASLETVKVGKTYELLNCDRHKSMLLKNGRDPGEVRPDITHQSLLMLMDSPLNRAGLLQVYIHTQKNVLIEVNPQTRIPRTFDRFCGLMVQLLHKLSVRAADGPQKLLKVIKNPVSDHFPVGCMKIGTSFSVEDISDIRELVPSSDPVVFVVGAFAHGKVSVEYTEKMVSISNYPLSAALTCAKVTTAFEEVWGVI
notes: Used as a two-hybrid fusion; also called mEmg1; murine Emg1
binding result [1]: binds
binding result [2]: binds
